Experimental data reported in the supplement of paper PMC9112550, “Optimization of the antimicrobial peptide Bac7 by deep mutational scanning” (BMC Biology, 2022).

tested on: Escherichia coli TOP10; assay: shrunken log2 fold change of peptide-encoding DNA abundance (4.5 h post-induction vs induction); higher = less antimicrobial activity (less host growth inhibition); settings: time post-induction: 4.5 h; library: site-saturation at positions 5, 18, 19, 20
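Further: peptides expressed intracellularly from a pBAD plasmid library in pooled LB shake-flask culture, induced with 0.3% L-arabinose, DNA abundance read by NGS, three biological replicates, DESeq2 with apeglm shrinkage.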

| Sequence | shrunken log2 fold change |
| --- | --- |
| RRIRKRPPRLPRPRPRPFNEPRP | 0.0442 |
| RRIRTRPPRLPRPRPRPNSFPRP | -0.00453 |
| RRIRNRPPRLPRPRPRPRTVPRP | -0.403 |
| RRIRWRPPRLPRPRPRPWNGPRP | 0.0206 |
| RRIRKRPPRLPRPRPRPNRPPRP | 0.0563 |
| RRIRARPPRLPRPRPRPCTTPRP | 0.184 |
| RRIRKRPPRLPRPRPRPRGQPRP | 0.648 |
| RRIRARPPRLPRPRPRPMFNPRP | -0.132 |
| RRIRMRPPRLPRPRPRPHWWPRP | 0.325 |
| RRIRPRPPRLPRPRPRPIQHPRP | -0.053 |
| RRIRYRPPRLPRPRPRPDTRPRP | -0.153 |
| RRIRDRPPRLPRPRPRPDVTPRP | 0.149 |
| RRIRSRPPRLPRPRPRPHAYPRP | 0.0215 |
| RRIRIRPPRLPRPRPRPKGHPRP | 0.0764 |
| RRIRFRPPRLPRPRPRPVKKPRP | 0.166 |
| RRIRPRPPRLPRPRPRPFIWPRP | -0.271 |
| RRIRDRPPRLPRPRPRPVLMPRP | -0.134 |
| RRIRVRPPRLPRPRPRPVCIPRP | -0.0826 |
| RRIRCRPPRLPRPRPRPSVRPRP | -0.362 |
| RRIRGRPPRLPRPRPRPKFEPRP | 0.411 |
| RRIRDRPPRLPRPRPRPGHMPRP | -0.0968 |
| RRIRMRPPRLPRPRPRPMHVPRP | -0.207 |
| RRIRFRPPRLPRPRPRPNPQPRP | 0.17 |

| Sequence | shrunken log2 fold change |
| --- | --- |
| RRIRIRPPRLPRPRPRPEASPRP | 0.144 |
| RRIRFRPPRLPRPRPRPWDNPRP | -0.298 |
| RRIRIRPPRLPRPRPRPPYHPRP | -0.652 |
| RRIRCRPPRLPRPRPRPWINPRP | 0.102 |
| RRIRMRPPRLPRPRPRPARRPRP | 1.35 |
| RRIRMRPPRLPRPRPRPIEDPRP | 0.224 |
| RRIRQRPPRLPRPRPRPNLNPRP | -0.221 |
| RRIRARPPRLPRPRPRPRFRPRP | 0.459 |
| RRIRLRPPRLPRPRPRPSSIPRP | -0.245 |
| RRIRDRPPRLPRPRPRPEWSPRP | 0.364 |
| RRIRSRPPRLPRPRPRPAPRPRP | 0.845 |
| RRIRQRPPRLPRPRPRPDYYPRP | -0.0251 |
| RRIRKRPPRLPRPRPRPDTRPRP | 0.0202 |
| RRIRVRPPRLPRPRPRPRKNPRP | 0.0784 |
| RRIRMRPPRLPRPRPRPDILPRP | 1.45 |
| RRIRMRPPRLPRPRPRPISGPRP | 0.0247 |
| RRIRQRPPRLPRPRPRPHIHPRP | -0.476 |
| RRIRFRPPRLPRPRPRPERHPRP | -0.00647 |
| RRIRKRPPRLPRPRPRPCFHPRP | -0.125 |
| RRIRIRPPRLPRPRPRPIEFPRP | -0.0138 |
| RRIRSRPPRLPRPRPRPTTMPRP | 0.0245 |
| RRIRARPPRLPRPRPRPPDLPRP | 0.829 |
| RRIRIRPPRLPRPRPRPGQIPRP | -0.0559 |

| Sequence | shrunken log2 fold change |
| --- | --- |
| RRIRSRPPRLPRPRPRPTCRPRP | -0.0471 |
| RRIRHRPPRLPRPRPRPHFRPRP | 0.00253 |
| RRIRYRPPRLPRPRPRPQKVPRP | -0.209 |
| RRIRARPPRLPRPRPRPRATPRP | 0.581 |
| RRIRCRPPRLPRPRPRPWGSPRP | -0.151 |
| RRIRTRPPRLPRPRPRPGGWPRP | 1.23 |
| RRIRWRPPRLPRPRPRPQWPPRP | 0.158 |
| RRIRVRPPRLPRPRPRPICHPRP | -0.224 |
| RRIRERPPRLPRPRPRPCDMPRP | -0.0119 |
| RRIRWRPPRLPRPRPRPVADPRP | 1.07 |
| RRIRMRPPRLPRPRPRPWRDPRP | 0.518 |
| RRIRERPPRLPRPRPRPHAMPRP | 0.0454 |
| RRIRYRPPRLPRPRPRPQYHPRP | -0.873 |
| RRIRMRPPRLPRPRPRPVDKPRP | 0.0379 |
| RRIRCRPPRLPRPRPRPIQMPRP | -0.0491 |
| RRIRDRPPRLPRPRPRPNMLPRP | 0.0937 |
| RRIRSRPPRLPRPRPRPYDNPRP | -0.0962 |
| RRIRRRPPRLPRPRPRPYFAPRP | 0.487 |
| RRIRVRPPRLPRPRPRPCNMPRP | -0.247 |
| RRIRKRPPRLPRPRPRPGNVPRP | 0.00843 |
| RRIRIRPPRLPRPRPRPETQPRP | 0.0575 |
| RRIRRRPPRLPRPRPRPTVSPRP | 0.119 |
| RRIRLRPPRLPRPRPRPKFIPRP | -0.304 |

| Sequence | shrunken log2 fold change |
| --- | --- |
| RRIRRRPPRLPRPRPRPWYWPRP | -0.039 |
| RRIRIRPPRLPRPRPRPEYCPRP | -0.125 |
| RRIRTRPPRLPRPRPRPFFMPRP | -0.231 |
| RRIRPRPPRLPRPRPRPYQFPRP | -0.114 |
| RRIRYRPPRLPRPRPRPPSQPRP | 0.0859 |
| RRIRKRPPRLPRPRPRPKTHPRP | 0.4 |
| RRIRARPPRLPRPRPRPPQMPRP | 0.868 |
| RRIRNRPPRLPRPRPRPVGWPRP | 0.855 |
| RRIRFRPPRLPRPRPRPEWMPRP | 0.236 |
| RRIRTRPPRLPRPRPRPFTDPRP | 0.00943 |
| RRIRTRPPRLPRPRPRPAEPPRP | 0.392 |
| RRIRYRPPRLPRPRPRPLVCPRP | -0.325 |
| RRIRARPPRLPRPRPRPFKEPRP | -0.0239 |
| RRIRARPPRLPRPRPRPLDKPRP | 0.332 |
| RRIRARPPRLPRPRPRPHPHPRP | 0.322 |
| RRIRHRPPRLPRPRPRPSKQPRP | -0.166 |
| RRIRRRPPRLPRPRPRPPHKPRP | 1.77 |
| RRIRERPPRLPRPRPRPDVFPRP | -0.0359 |
| RRIRHRPPRLPRPRPRPNHDPRP | -0.719 |
| RRIRMRPPRLPRPRPRPRWSPRP | 0.803 |
| RRIRWRPPRLPRPRPRPMRPPRP | 1.15 |
| RRIRHRPPRLPRPRPRPVCPPRP | -0.0334 |
